Target: DR5 (TRAILR2) (Homo sapiens)
Test: cell-based or functional assay

Binder	cell viability of COLO205 cells after 24 hours (Cell-Titer Glo)
anti-DR5 IgM+wt J-chain (antibody) heavy: not shown light: SSELTQDPAVSVALGQTVRITCQGDSLRSYYASWYQQKPGQAPVLVIYGKNNRPSGIPDRFSGSSSGNTASLTITGAQAEDEADYYCNSRDSSGNHVVFGGGTKLTVLGQPKAAPSVTLFPPSSEELQANKATLVCLISDFYPGAVTVAWKADSSPVKAGVETTTPSKQSNNKYAASSYLSLTPEQWKSHRSYSCQVTHEGSTVEKTVAPTECS not shown	> 1000 fold, compared to the corresponding IgG
anti-DR5 IgM (without J-chain) (antibody, V domains shown) VH: EVQLVQSGGGVERPGGSLRLSCAASGFTFDDYGMSWVRQAPGKGLEWVSGINWNGGSTGYADSVKGRVTISRDNAKNSLYLQMNSLRAEDTAVYYCAKILGAGRGWYFDLWGKGTTVTVSS VL: SSELTQDPAVSVALGQTVRITCQGDSLRSYYASWYQQKPGQAPVLVIYGKNNRPSGIPDRFSGSSSGNTASLTITGAQAEDEADYYCNSRDSSGNHVVFGGGTKLTVLG	> 1000 fold, compared to the corresponding IgG
